Test results published in paper PMC8007570.

B1: FAM 40-mer dsDNA (dsDNA)
DNA 1: GTGTTCGGACTCTGCCTCAAGACGGTAGTCAACGTGCTTG
DNA 2: CAAGCACGTTGACTACCGTCTTGAGGCAGAGTCCGAACAC

Tests used:
[1] = target: Pf MRNBD wild type (Mre11 + Rad50 NBD) (Pyrococcus furiosus, UniProt Q8U1N9;P58301 1-426;1-195+709-882, internal_change); assay: fluorescence polarization; 1 mM MnCl2, 0.1 mM EDTA, no ATP/Mg2+; FP: 25 nM DNA, 50 mM HEPES, 100 mM NaCl, 1 mM MnCl2, 0.1 mM EDTA, 1% glycerol, 1 mM TCEP, 0.1% PEG-6000, pH 7, 15 min room temperature; NMR at 50 C
Pf MRNBD Y199C = Pf MRNBD Y199C (Pyrococcus furiosus, UniProt Q8U1N9;P58301 1-426;1-195+709-882, Y199C;internal_change); assay: as above

| Binder | Kd [1] [nM] | Kd (Pf MRNBD Y199C) [nM] |
| --- | --- | --- |
| B1 | 2000 | 2500 |
| GTGTTCGGACTCTGCCTCAAGACGGTAGTCAACGTGCTTG (ssDNA) [FAM 40-mer ssDNA] | 310 | 350 |
